# Measured values: publication PMC7820495
# T1: GST-SVIP (Drosophila SVIP, CG32039), Q8IQC6
# T1 chain: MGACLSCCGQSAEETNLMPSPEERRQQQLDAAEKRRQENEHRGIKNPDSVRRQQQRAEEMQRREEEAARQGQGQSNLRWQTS
# B1: MBP-VCP^N-D1 (Drosophila VCP, N-terminal and first D1 ATPase domain), Q7KN62 R152H (protein)
# chain: MADSKGEDLATAILKRKDRPNRLIVEEAQNDDNSVVSLSQAKMDELQLFRGDTVILKGKRRKETVCIVLSDDTCPDEKIRMNRVVRNNLCVHLSDVVSVQSCPDVKYGKRVRILPIDESTEGVTGNLFEIYLKPYFLEAYRPIHMGDNFIVHAAMRPIEFKVVLTDPEPYCIVAPETVIFCDGDPIKREEEEESLNAVGYDDIGGCRKQLAQIKEMVELPLRHPSLFKAIGVKPPRGILMYGPPGTGKTLIARAVANETGAFFFLINGPEIMSKLAGESESNLRKAFEEAEKNSPAIIFIDEIDAIAPKRDKTHGEVERRIVSQLLTLMDGMKKSSHLIVMAATNRPNSIDPALRRFGRFDREIDIGIPDATGRLEVLRIHTKNMKLHDDVDLEQIAAESHGHVGADLASLCSEAALQQIREKMDLIDLEDDKIDAEVLASLAVTMENFRYAMTKSSPSALRETVVEVPNTTWTDIGGLESVKKELQELVQYPVEHPDKFLKFGMQPSRGVLFYGPPGCGKTLLAKAIANECQANFISVKGPELLTMWFGESEANVRDIFDKARSAAPCVLFFDELDSIAKARGGNVGDAGGAADRVINQILTEMDGMGAKKNVFIIGATNRPDIIDPAILRPGRLDQLIYIPLPDDKSREAILKANLRKSPLAKEVDLTYIAKVTQGFSGADLTEICQRACKLAIRQAIEAEIRREKERAENQNSAMDMDEDDPVPEITSAHFEEAMKFARRSVSDNDIRKYEMFAQTLQQSRGFGQNFRFPGQTGNTSGSGNNLPVNSPGDNGDDDLYS
# B2: MBP-VCP^N-D1 (Drosophila VCP, N-terminal and first D1 ATPase domain), Q7KN62 A229E (protein)
# chain: MADSKGEDLATAILKRKDRPNRLIVEEAQNDDNSVVSLSQAKMDELQLFRGDTVILKGKRRKETVCIVLSDDTCPDEKIRMNRVVRNNLCVHLSDVVSVQSCPDVKYGKRVRILPIDESTEGVTGNLFEIYLKPYFLEAYRPIHMGDNFIVRAAMRPIEFKVVLTDPEPYCIVAPETVIFCDGDPIKREEEEESLNAVGYDDIGGCRKQLAQIKEMVELPLRHPSLFKEIGVKPPRGILMYGPPGTGKTLIARAVANETGAFFFLINGPEIMSKLAGESESNLRKAFEEAEKNSPAIIFIDEIDAIAPKRDKTHGEVERRIVSQLLTLMDGMKKSSHLIVMAATNRPNSIDPALRRFGRFDREIDIGIPDATGRLEVLRIHTKNMKLHDDVDLEQIAAESHGHVGADLASLCSEAALQQIREKMDLIDLEDDKIDAEVLASLAVTMENFRYAMTKSSPSALRETVVEVPNTTWTDIGGLESVKKELQELVQYPVEHPDKFLKFGMQPSRGVLFYGPPGCGKTLLAKAIANECQANFISVKGPELLTMWFGESEANVRDIFDKARSAAPCVLFFDELDSIAKARGGNVGDAGGAADRVINQILTEMDGMGAKKNVFIIGATNRPDIIDPAILRPGRLDQLIYIPLPDDKSREAILKANLRKSPLAKEVDLTYIAKVTQGFSGADLTEICQRACKLAIRQAIEAEIRREKERAENQNSAMDMDEDDPVPEITSAHFEEAMKFARRSVSDNDIRKYEMFAQTLQQSRGFGQNFRFPGQTGNTSGSGNNLPVNSPGDNGDDDLYS
# B3: MBP-VCP^N-D1 (Drosophila VCP, N-terminal and first D1 ATPase domain), Q7KN62 T259A (protein)
# chain: MADSKGEDLATAILKRKDRPNRLIVEEAQNDDNSVVSLSQAKMDELQLFRGDTVILKGKRRKETVCIVLSDDTCPDEKIRMNRVVRNNLCVHLSDVVSVQSCPDVKYGKRVRILPIDESTEGVTGNLFEIYLKPYFLEAYRPIHMGDNFIVRAAMRPIEFKVVLTDPEPYCIVAPETVIFCDGDPIKREEEEESLNAVGYDDIGGCRKQLAQIKEMVELPLRHPSLFKAIGVKPPRGILMYGPPGTGKTLIARAVANEAGAFFFLINGPEIMSKLAGESESNLRKAFEEAEKNSPAIIFIDEIDAIAPKRDKTHGEVERRIVSQLLTLMDGMKKSSHLIVMAATNRPNSIDPALRRFGRFDREIDIGIPDATGRLEVLRIHTKNMKLHDDVDLEQIAAESHGHVGADLASLCSEAALQQIREKMDLIDLEDDKIDAEVLASLAVTMENFRYAMTKSSPSALRETVVEVPNTTWTDIGGLESVKKELQELVQYPVEHPDKFLKFGMQPSRGVLFYGPPGCGKTLLAKAIANECQANFISVKGPELLTMWFGESEANVRDIFDKARSAAPCVLFFDELDSIAKARGGNVGDAGGAADRVINQILTEMDGMGAKKNVFIIGATNRPDIIDPAILRPGRLDQLIYIPLPDDKSREAILKANLRKSPLAKEVDLTYIAKVTQGFSGADLTEICQRACKLAIRQAIEAEIRREKERAENQNSAMDMDEDDPVPEITSAHFEEAMKFARRSVSDNDIRKYEMFAQTLQQSRGFGQNFRFPGQTGNTSGSGNNLPVNSPGDNGDDDLYS
# Target: T1, GST-SVIP (Drosophila SVIP, CG32039), …
# Experiment: in vitro binding titration assay
# Conditions: chain shown with the change;; parent: 0.70 uM
row,Binder,Kd [nM]
1,B1,640
2,B2,580
3,B3,1230
